What follows are substances tested against hemagglutinin H3 on influenza virus A/Aichi/2/68 strain (H3N2) (influenza virus A/Aichi/2/68 (H3N2)) (UniProt P03437) (assay: cell-based or functional assay).

C18-s2(1-5) (C18-ARLPR peptide amide) and “C18-s2(1-8) (C18-ARLPRTMV peptide amide)” are within 1.5-fold of each other in IC50(µM), plaque assay, infection of MDCK cells: 1.55 µM for the first, 1.4 µM for the second.

Compared with C18-s2(r1-4) (C18-PLRA peptide amide), C18-s2(r1-5) (C18-RPLRA peptide amide) is 15-fold lower in IC50(µM), plaque assay, infection of MDCK cells: 14 µM for the first, 0.94 µM for the second.

Biological target: hemagglutinin H3 on influenza virus A/Aichi/2/68 strain (H3N2) (influenza virus A/Aichi/2/68 (H3N2)) (UniProt P03437)
Assay: cell-based or functional assay
Remark: another data set of the same source

C18-s2(1-2) (C18-AR peptide amide) and C18-s2(1-3) (C18-ARL peptide amide) cannot be ordered by IC50(µM), plaque assay, infection of MDCK cells: greater than 100 µM for the first, greater than 100 µM for the second.

First: C18-s2(1-4) (C18-ARLP peptide amide)
Second: C18-s2(1-4)P4A (C18-ARLA peptide amide)
The IC50(µM), plaque assay, infection of MDCK cells of the first is lower: 21 µM for the first, greater than 100 µM for the second.

First: C18-s2(1-5) (C18-ARLPR peptide amide)
Second: C18-s2(1-6) (C18-ARLPRT peptide amide)
The IC50(µM), plaque assay, infection of MDCK cells of the first is 1.7-fold lower: 3 µM for the first, 5 µM for the second.

Going from C18-s2(1-7) (C18-ARLPRTM peptide amide) to C18-s2(2-8) (C18-RLPRTMV peptide amide), the IC50(µM), plaque assay, infection of MDCK cells rises from 9.1 µM to greater than 100 µM.

Compared with “C18-s2(5-11) (C18-RTMVHPK peptide amide)”, “C18-s2(8-15) (C18-VHPKPAQP peptide amide)” is lower in IC50(µM), plaque assay, infection of MDCK cells: greater than 100 µM for the first, 10.5 µM for the second.

“C18-s2(r1-8) (C18-VMTRPLRA peptide amide)” gave an IC50(µM), plaque assay, infection of MDCK cells of 226 µM.

From patent publication US20100119588A1
